Earlier results, collected in paper PMC3589424.
pKd: −log10 of the molar value.

Target: CD47 (Homo sapiens) (UniProt Q08722)
Chain of UniProt Q08722 (Q08722 19-323): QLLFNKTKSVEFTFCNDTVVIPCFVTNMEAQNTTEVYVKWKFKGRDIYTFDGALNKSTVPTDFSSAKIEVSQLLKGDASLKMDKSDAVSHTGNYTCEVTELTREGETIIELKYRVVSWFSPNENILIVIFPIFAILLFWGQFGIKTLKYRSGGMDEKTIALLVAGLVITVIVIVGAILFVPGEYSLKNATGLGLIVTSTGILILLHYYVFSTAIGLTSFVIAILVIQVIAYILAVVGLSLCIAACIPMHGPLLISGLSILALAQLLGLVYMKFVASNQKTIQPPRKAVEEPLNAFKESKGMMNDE

For SIRPα (from UniProt P78324), the pKd is listed as 5.70.
